{
  "source": "patent US6632672",
  "target": "T1, phiC31 integrase (Streptomyces phage phiC31) (UniProt Q9T221)",
  "T1 sequence": "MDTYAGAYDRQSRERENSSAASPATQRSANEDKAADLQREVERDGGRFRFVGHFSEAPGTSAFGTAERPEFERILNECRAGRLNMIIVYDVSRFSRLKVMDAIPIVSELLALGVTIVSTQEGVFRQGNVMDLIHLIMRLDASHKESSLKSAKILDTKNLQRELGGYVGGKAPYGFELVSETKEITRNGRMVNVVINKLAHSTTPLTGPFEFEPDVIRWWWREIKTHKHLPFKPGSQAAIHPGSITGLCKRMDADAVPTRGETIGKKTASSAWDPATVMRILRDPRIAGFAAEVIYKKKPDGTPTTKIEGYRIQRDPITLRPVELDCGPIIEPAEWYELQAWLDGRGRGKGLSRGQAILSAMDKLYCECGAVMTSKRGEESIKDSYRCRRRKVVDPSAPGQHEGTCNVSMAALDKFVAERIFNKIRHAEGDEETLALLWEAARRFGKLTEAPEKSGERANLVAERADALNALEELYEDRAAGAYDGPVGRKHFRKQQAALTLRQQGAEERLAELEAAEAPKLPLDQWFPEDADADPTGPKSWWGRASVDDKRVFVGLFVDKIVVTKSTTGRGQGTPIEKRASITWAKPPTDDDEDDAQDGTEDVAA",
  "assay": "cell_activity",
  "data": [
    {"substance": "attB34", "values": [
      {"measurement": "binding signal", "setting": "E. coli, relative to full-length attB", "result": 100, "unit": "%"}
    ]},
    {"substance": "attB full length (pBCPB+)", "values": [
      {"measurement": "activity", "setting": "bimolecular integration of attP donor into EBV plasmid in human 293 cells, corrected for transfection", "result": 7.5, "unit": "%"},
      {"measurement": "activity", "setting": "intramolecular integration with attP in E. coli, all colonies white", "result": 100, "unit": "%"}
    ]},
    {"substance": "attP full length (221 bp)", "values": [
      {"measurement": "activity", "setting": "intramolecular attB x attP recombination in human 293 cells, SE 2.32%, 16 experiments", "result": 50.6, "unit": "%"},
      {"measurement": "activity", "setting": "intramolecular integration with attB in E. coli, all colonies white", "result": 100, "unit": "%"}
    ]}
  ]
}
